Measurements: patent US20040235029A1

Target: exonuclease V (ExoV) of E. coli, a component of RecBCD holoenzyme (E. coli) (UniProt P08394)
Test: cell-based or functional assay

UniProt P08394, sequence (P08394 2-1180 limits assumed, chain 1 of 3): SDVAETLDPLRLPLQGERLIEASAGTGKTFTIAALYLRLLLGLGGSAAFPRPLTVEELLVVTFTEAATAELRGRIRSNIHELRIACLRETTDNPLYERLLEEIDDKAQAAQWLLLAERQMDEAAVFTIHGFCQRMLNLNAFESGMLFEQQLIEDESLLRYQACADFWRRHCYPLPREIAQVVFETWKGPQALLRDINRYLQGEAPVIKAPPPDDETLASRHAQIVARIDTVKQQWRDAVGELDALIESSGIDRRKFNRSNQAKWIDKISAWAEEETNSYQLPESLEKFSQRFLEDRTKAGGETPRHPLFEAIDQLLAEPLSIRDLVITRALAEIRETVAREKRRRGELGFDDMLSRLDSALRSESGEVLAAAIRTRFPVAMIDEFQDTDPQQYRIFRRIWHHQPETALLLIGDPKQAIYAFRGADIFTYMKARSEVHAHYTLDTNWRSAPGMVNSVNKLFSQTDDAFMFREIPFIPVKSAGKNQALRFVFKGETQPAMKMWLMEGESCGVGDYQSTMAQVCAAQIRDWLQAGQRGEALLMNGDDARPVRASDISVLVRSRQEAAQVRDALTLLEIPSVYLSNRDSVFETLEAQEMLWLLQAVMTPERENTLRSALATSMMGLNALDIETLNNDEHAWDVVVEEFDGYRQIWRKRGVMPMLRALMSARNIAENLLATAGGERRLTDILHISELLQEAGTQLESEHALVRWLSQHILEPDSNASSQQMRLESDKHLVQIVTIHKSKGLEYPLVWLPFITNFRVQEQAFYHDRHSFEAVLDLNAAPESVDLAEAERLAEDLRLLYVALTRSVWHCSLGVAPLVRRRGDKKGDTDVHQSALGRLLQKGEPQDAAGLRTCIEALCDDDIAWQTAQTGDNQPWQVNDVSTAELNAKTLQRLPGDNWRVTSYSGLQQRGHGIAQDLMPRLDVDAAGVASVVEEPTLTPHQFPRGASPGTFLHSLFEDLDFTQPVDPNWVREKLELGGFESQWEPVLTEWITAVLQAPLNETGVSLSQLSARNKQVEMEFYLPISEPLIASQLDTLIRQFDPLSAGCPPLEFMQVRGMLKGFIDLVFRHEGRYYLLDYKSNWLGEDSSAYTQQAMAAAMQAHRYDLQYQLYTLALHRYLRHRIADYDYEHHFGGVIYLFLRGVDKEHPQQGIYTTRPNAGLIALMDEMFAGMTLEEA
UniProt P08394, sequence (P07648 whole entry, chain 2 of 3, further chain): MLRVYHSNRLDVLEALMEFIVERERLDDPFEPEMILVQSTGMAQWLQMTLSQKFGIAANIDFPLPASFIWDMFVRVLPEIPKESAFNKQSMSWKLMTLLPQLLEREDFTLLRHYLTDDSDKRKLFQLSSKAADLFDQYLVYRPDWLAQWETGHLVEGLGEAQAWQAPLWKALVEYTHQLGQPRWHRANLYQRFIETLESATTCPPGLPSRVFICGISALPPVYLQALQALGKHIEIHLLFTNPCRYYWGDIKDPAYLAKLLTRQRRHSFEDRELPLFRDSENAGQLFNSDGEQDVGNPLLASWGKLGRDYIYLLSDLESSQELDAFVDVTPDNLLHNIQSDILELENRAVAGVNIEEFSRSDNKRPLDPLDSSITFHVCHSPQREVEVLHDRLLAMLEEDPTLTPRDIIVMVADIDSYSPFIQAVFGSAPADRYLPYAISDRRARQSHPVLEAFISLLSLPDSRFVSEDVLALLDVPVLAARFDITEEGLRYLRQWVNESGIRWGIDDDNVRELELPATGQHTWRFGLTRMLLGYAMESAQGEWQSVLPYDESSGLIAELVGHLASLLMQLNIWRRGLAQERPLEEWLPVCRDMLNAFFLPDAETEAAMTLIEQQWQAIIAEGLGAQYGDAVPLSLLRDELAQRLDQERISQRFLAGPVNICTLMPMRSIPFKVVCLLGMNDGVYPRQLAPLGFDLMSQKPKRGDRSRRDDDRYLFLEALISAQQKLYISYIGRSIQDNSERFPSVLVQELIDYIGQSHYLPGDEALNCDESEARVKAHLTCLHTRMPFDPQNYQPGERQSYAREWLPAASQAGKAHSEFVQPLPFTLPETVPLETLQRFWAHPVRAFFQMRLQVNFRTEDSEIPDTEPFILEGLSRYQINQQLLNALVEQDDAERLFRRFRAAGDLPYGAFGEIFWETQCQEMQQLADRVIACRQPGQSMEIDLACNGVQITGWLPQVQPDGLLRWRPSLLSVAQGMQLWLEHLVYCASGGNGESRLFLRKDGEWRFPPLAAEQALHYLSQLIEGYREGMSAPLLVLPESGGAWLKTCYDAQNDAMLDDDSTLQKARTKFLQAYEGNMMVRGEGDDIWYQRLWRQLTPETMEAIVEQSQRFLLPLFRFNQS
UniProt P08394, sequence (P04993 whole entry, chain 3 of 3, further chain): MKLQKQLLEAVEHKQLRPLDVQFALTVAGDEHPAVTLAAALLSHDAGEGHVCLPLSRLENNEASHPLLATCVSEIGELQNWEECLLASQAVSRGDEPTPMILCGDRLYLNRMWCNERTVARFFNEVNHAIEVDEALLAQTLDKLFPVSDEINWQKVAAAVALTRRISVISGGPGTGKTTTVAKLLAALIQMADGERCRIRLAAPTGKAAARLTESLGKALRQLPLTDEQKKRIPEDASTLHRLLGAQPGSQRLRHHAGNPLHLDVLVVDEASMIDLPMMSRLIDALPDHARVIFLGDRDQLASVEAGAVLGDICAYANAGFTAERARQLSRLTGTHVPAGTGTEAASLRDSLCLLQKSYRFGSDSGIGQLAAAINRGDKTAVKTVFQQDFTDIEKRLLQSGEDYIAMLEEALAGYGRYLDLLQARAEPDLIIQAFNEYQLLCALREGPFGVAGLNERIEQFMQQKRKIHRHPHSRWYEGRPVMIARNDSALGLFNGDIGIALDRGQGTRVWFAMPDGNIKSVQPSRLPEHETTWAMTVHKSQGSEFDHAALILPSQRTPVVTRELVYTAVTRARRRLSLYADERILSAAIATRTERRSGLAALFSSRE

With “GamS protein of bacteriophage lambda with C-terminal 6His tag (from UniProt P03702 41-138)” the GFP expression from linear template in batch IVT with co-expressed GamS plasmid template (Coomassie staining of gel) was > 2 fold, the GFP expression from linear template in batch IVT with crude GamS (PAGE, Coomassie), against control reaction without GamS was 2 fold and the GFP protein synthesis from a linear template in batch mode IVT (Coomassie staining of gel), against control reactions lacking GamS was 3 fold.
